Data from publication PMC3919601.

Biological target: 80S ribosomes from yeast cells expressing wild-type rpL10 (S. cerevisiae) (UniProt P41805)
Assay: steady-state binding of [32P]-Sdo1p; ribosomes held on cysteine-charged sulfolink resin, unbound Sdo1p in the flow-through counted; 2 pmol ribosomes with 0.25–32 pmol Sdo1p and 100 µg polyU in 50 mM Tris-(OAc)2 pH 7.5, 50 mM NH4(OAc)2, 10 mM Mg(OAc)2, 2 mM DTT, 50 µl, 30°C 20 min

Sequence of UniProt P41805 (P41805 whole entry, looked up): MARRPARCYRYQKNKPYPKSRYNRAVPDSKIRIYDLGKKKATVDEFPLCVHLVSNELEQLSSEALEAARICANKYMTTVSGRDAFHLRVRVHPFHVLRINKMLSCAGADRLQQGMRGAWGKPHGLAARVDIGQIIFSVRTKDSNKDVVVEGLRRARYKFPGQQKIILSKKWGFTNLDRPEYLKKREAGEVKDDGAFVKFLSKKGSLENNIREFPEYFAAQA

stoichiometry N: 1
B1: Sdo1p with a C-terminal 6× histidine tag and the phosphorylatable kemptide (natural protein)
chain: MPINQPSGQIKLTNVSLVRLKKARKRFEVACYQNKVQDYRKGIEKDLDEVLQIHQVFMNVSKGLVANKEDLQKCFGTTNVDDVIEEIMHKGEIQLSEKERQLMLNKVNNEMLTIVSAKCINPVSKKRYPPTMIHKALQELKFSPVINKPAKLQALEAIKLLVSKQIIPIVRAKMKVKVAISEPSRQPELIEKISKLIASSPGESTKPELDPWTCTGLIDPVNYRDLMTLCDKKGTVQVLDMAVIDNTTHN
modifications: 32P-phosphate on the kemptide (labelled with PKA and [32P]-γ-ATP, 40–60% label incorporation)
